Values of other authors, collected in paper PMC12489035.

Target: APP tail cytoplasmic tail (Homo sapiens) (UniProt P05067)
Sequence (P05067 724-770): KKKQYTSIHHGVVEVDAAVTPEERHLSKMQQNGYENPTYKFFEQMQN

AP-4 mu4 subunit, sequence (O00189 whole entry): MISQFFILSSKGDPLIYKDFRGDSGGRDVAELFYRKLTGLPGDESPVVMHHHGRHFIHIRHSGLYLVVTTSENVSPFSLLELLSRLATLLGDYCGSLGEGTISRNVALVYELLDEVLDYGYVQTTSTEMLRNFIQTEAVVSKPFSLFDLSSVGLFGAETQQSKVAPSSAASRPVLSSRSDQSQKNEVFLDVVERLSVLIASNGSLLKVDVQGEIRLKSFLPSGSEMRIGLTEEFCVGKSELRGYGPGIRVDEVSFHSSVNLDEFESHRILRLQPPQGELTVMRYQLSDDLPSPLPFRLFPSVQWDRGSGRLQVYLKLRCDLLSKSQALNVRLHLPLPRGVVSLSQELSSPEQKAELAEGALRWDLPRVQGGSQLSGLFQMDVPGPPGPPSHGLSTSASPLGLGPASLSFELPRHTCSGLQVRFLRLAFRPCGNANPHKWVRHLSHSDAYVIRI

Kd: 27.7 µM
Substance: AP-4 mu4 subunit (from UniProt O00189)
